Test in all cases: SPR
The target in assay [1] is T1, FcgRIIaR (human, UniProt P12318).
T1 chain: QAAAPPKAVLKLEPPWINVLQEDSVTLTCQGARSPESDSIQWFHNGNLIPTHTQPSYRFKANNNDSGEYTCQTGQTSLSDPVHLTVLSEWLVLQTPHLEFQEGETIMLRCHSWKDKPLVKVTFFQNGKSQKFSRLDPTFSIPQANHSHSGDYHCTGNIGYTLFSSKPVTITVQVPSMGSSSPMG

Assay [2] deals with T2, FcgRIIaH (human, UniProt P12318).
T2 chain: T1 chain with R134H

In assay [3] the target is T3, FcgRIIIaV (human, UniProt P08637).
Assay [4] deals with T4, FcgRIa (human, UniProt P12314).
T4 chain: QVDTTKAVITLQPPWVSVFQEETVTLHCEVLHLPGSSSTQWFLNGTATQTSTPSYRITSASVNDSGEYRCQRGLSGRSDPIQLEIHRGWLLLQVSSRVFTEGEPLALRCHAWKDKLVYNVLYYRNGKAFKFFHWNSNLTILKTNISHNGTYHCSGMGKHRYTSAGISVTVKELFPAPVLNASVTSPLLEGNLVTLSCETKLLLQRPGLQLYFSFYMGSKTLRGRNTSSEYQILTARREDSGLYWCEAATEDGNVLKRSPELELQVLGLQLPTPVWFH

For assay [5], the target named is T5, FcgRIIb (human, UniProt P31994).
T5 chain: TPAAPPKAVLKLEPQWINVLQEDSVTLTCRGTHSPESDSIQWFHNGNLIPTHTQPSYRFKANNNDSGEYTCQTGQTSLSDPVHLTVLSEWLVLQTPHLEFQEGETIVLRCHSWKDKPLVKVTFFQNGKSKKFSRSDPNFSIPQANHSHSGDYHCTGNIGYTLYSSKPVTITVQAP

Assay [6] has as its target T3, FcgRIIIaV. The source holds these as a separate data set.
Assay [7] concerns the target T2, FcgRIIaH.
For assay [8], the target named is T5, FcgRIIb.
For assay [9], the target named is T4, FcgRIa.
Assay [10] deals with T1, FcgRIIaR.
The target in assay [11] is T3, FcgRIIIaV. The source holds these as a separate data set.
The target in assay [12] is T1, FcgRIIaR.
Assay [13] concerns the target T2, FcgRIIaH.
For assay [14], the target named is T5, FcgRIIb.
The target of assay [15] is T2, FcgRIIaH.
In assay [16] the target is T5, FcgRIIb.
Assay [17] addresses T4, FcgRIa.
Assay [18] has as its target T1, FcgRIIaR.
For assay [19], the target named is T3, FcgRIIIaV. The source holds these as a separate data set.
A further assay has as its target T6, mFcgRIV (mouse, UniProt A0A0B4J1G0).
T6 chain: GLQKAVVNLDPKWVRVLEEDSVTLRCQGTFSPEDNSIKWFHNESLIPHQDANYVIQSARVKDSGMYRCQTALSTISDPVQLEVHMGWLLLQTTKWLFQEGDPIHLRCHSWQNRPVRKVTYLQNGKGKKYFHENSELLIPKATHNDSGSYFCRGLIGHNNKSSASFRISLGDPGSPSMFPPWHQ

Another assay concerns the target T7, mFcgRI (mouse, UniProt P26151).
T7 chain: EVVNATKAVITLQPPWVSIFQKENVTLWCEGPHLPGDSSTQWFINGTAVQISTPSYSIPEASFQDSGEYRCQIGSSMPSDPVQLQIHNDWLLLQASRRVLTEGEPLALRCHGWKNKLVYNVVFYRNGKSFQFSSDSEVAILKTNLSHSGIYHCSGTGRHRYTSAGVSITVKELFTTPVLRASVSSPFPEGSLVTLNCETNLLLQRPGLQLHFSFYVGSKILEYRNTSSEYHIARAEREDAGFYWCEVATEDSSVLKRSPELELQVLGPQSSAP

Positions count from the first letter of the chain named. Like-named read-outs stand apart in the source and are kept apart here.

T3 sequence (P08637 17-208 F176V): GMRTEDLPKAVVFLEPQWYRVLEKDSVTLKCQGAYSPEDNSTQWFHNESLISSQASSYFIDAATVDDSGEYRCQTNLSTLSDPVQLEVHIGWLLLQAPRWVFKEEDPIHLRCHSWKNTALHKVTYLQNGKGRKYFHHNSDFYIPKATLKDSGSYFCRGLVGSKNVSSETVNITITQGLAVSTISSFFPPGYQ

B1: IL6R-P631/IL6R-L (antibody)
chain 1: QVQLQESGPGLVKPSETLSLTCAVSGHSISHDHAWSWVRQPPGEGLEWIGFISYSGITNYNPSLQGRVTISRDNSKNTLYLQMNSLRAEDTAVYYCARSLARTTAMDYWGEGTLVTVSSASTKGPSVFPLAPSSKSTSGGTAALGCLVKDYFPEPVTVSWNSGALTSGVHTFPAVLQSSGLYSLSSVVTVPSSSLGTQTYICNVNHKPSNTKVDKKVEPKSCDKTHTCPPCPAPDLLGGDSVFLFPPKPKDTLMISRTPEVTCVVINVAEEDGEVKFNWYVDGVEVHNAKTKPREEQYNSTYRVVSVLTVLHQDWLNGKEYKCKVSNKALPAPIEKTISKAKGQPREPQVYTLPPSRDELTKNQVSLTCLVKGFYPSDIAVEWESNGQPENNYKTTPPVLDSDGSFFLYSKLTVDKSRWQQGNVFSCSVMHEALHNHYTQKSLSLSP
chain 2: not shown
What is called Kd is the equilibrium constant for the complex coming apart. Read a high Kd as weaker binding. As to B1, the Kd in the assay with FcgRIIaR [1] came to 26 µM; in the assay with FcgRIIaH [2], 96 µM; in the assay with FcgRIIIaV [3] it was 47 µM; with FcgRIa [4], 0.011 µM; with FcgRIIb [5] it was 4.4 µM.

B2: IL6R-P694/IL6R-L (antibody)
chain 1: B1 chain 1 with N267D, A269R, Y298E
chain 2: not shown
On to B2, for which the Kd with FcgRIIIaV [6] turned out to be 47 µM; with FcgRIIaH [7] it was 200 µM; with FcgRIIb [8], 2.8 µM; with FcgRIa [9] it was 0.41 µM; in the assay with FcgRIIaR [10], 61 µM.

B3: IL6R-P665/IL6R-L (antibody)
chain 1: B1 chain 1 with G239D, N267D, Y298D, N299A, A332R, P398M
chain 2: not shown
For B3, the Kd in the assay with FcgRIIaR [1] is 49 µM; with FcgRIIaH [2], 450 µM; in the assay with FcgRIIIaV [3] it was 67 µM; with FcgRIa [4], 1.9 µM; with FcgRIIb [5] it was 3.2 µM.

B4: IL6R-P577/IL6R-L (antibody)
chain 1: B1 chain 1 with G239D, N267D, Y298D, A332R, P398M
chain 2: not shown
Take B4: the dissociation constant Kd was 12 µM in the assay with FcgRIIIaV [11], 0.044 µM with FcgRIIaR [12], 1 µM with FcgRIIaH [13] and 0.0012 µM with FcgRIIb [14].

B5: IL6R-P730/IL6R-L (antibody)
chain 1: B1 chain 1 with G239Q, N267D, A269R, E270P, Y298E
chain 2: not shown
Take B5: the equilibrium dissociation constant (Kd) with FcgRIIIaV [6] stood at 73 µM; in the assay with FcgRIIaH [7], 310 µM; in the assay with FcgRIIb [8], 10 µM; in the assay with FcgRIa [9], 1.5 µM; with FcgRIIaR [10], 95 µM.

B6: IL6R-P629/IL6R-L (antibody)
chain 1: B1 chain 1 with G239K, N267D
chain 2: not shown
Turning to B6, the Kd was found to be 27 µM with FcgRIIaR [1]; 100 µM with FcgRIIaH [2]; 47 µM in the assay with FcgRIIIaV [3]; 0.0033 µM in the assay with FcgRIa [4]; 0.65 µM in the assay with FcgRIIb [5].

B7: IL6R-P652/IL6R-L (antibody)
chain 1: B1 chain 1 with G239D, N267D, A269Y, Y298D, A332R, P398M
chain 2: not shown
Regarding B7, the Kd amounted to 24 µM with FcgRIIaR [1]; 170 µM with FcgRIIaH [2]; 72 µM with FcgRIIIaV [3]; 0.72 µM with FcgRIa [4]; 1.2 µM with FcgRIIb [5].

B8: IL6R-P699/IL6R-L (antibody)
chain 1: B1 chain 1 with N267D, A269R, E270P
chain 2: not shown
Take B8: the Kd worked out at 65 µM with FcgRIIIaV [6]; 250 µM with FcgRIIaH [7]; 4.1 µM with FcgRIIb [8]; 0.69 µM with FcgRIa [9]; 57 µM with FcgRIIaR [10].

B9: IL6R-P626/IL6R-L (antibody)
chain 1: B1 chain 1 with L236R, N267D
chain 2: not shown
On to B9, for which the dissociation constant Kd came out at 31 µM with FcgRIIaR [1]; 200 µM with FcgRIIaH [2]; 75 µM in the assay with FcgRIIIaV [3]; 0.74 µM with FcgRIa [4]; 2.7 µM with FcgRIIb [5].

B10: IL6R-P661/IL6R-L (antibody)
chain 1: B1 chain 1 with D235E, I266V, N267D, A269S, E270H, G273P, S300A, A332H
chain 2: not shown
Take B10: the Kd was 94 µM in the assay with FcgRIIaH [15]; 4 µM with FcgRIIb [16]; 0.01 µM in the assay with FcgRIa [17]; 41 µM in the assay with FcgRIIaR [18]; 29 µM with FcgRIIIaV [19].

B11: IL6R-P625/IL6R-L (antibody)
chain 1: B1 chain 1 with L236K, N267D
chain 2: not shown
Turning to B11, the dissociation constant (Kd) with FcgRIIaR [1] came to 24 µM; with FcgRIIaH [2], 180 µM; with FcgRIIIaV [3] it was 66 µM; with FcgRIa [4], 0.5 µM; in the assay with FcgRIIb [5], 1.7 µM.

B12: IL6R-P712/IL6R-L (antibody)
chain 1: B1 chain 1 with N267D, A269R, E270P, Y298E
chain 2: not shown
For the molecule B12, the Kd worked out at 82 µM with FcgRIIIaV [6]; 300 µM with FcgRIIaH [7]; 3.4 µM in the assay with FcgRIIb [8]; 0.68 µM with FcgRIa [9]; 71 µM with FcgRIIaR [10].

B13: IL6R-P702/IL6R-L (antibody)
chain 1: B1 chain 1 with F243M, N267D, A269R
chain 2: not shown
As to B13, the Kd with FcgRIIIaV [6] was 44 µM; with FcgRIIaH [7], 170 µM; with FcgRIIb [8], 4 µM; with FcgRIa [9], 0.57 µM; with FcgRIIaR [10], 54 µM.

B14: IL6R-P636/IL6R-L (antibody)
chain 1: B1 chain 1 with N267D, A269R
chain 2: not shown
Consider B14, for which the Kd with FcgRIIaR [1] came to 54 µM; with FcgRIIaH [2], 170 µM; with FcgRIIIaV [3], 45 µM; with FcgRIa [4], 0.46 µM; in the assay with FcgRIIb [5] it was 2.9 µM.

B15: VH3/L(WT)-mIgG1 (antibody)
chain 1: QVQLQESGPGLVKPSETLSLTCAVSGHSISHDHAWSWVRQPPGEGLEWIGFISYSGITNYNPSLQGRVTISRDNSKNTLYLQMNSLRAEDTAVYYCARSLARTTAMDYWGEGTLVTVSSAKTTPPSVYPLAPGSAAQTNSMVTLGCLVKGYFPEPVTVTWNSGSLSSGVHTFPAVLQSDLYTLSSSVTVPSSTWPSETVTCNVAHPASSTKVDKKIVPRDCGCKPCICTVPEVSSVFIFPPKPKDVLTITLTPKVTCVVVDISKDDPEVQFSWFVDDVEVHTAQTQPREEQFNSTFRSVSELPIMHQDWLNGKEFKCRVNSAAFPAPIEKTISKTKGRPKAPQVYTIPPPKEQMAKDKVSLTCMITDFFPEDITVEWQWNGQPAENYKNTQPIMDTDGSYFVYSKLNVQKSNWEAGNTFTCSVLHEGLHNHHTEKSLSHSPGK
chain 2: not shown
In the case of B15, the binding result in the assay with mFcgRIV and in the assay with mFcgRI was “no binding” in each case.

These data come from patent US11267868 (dated 2022).
